{"source": "patent US20210214440A1", "about": "(Janssen / Centocor, published 2021)", "molecular_target": "T1, human CD8 on human pan T cells (human, UniProt P01732 22-235; P10966 22-210)", "T1 construct": "Native CD8 on the CD4-negative population of human pan T cells", "T1 sequence (P01732 22-235, chain 1 of 2)": "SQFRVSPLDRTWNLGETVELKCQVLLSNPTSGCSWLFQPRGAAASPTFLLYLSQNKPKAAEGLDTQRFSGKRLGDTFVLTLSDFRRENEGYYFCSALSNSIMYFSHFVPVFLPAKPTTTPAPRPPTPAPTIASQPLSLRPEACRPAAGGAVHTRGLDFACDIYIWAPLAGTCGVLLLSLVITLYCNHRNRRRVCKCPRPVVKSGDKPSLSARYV", "T1 sequence (P10966 22-210, chain 2 of 2)": "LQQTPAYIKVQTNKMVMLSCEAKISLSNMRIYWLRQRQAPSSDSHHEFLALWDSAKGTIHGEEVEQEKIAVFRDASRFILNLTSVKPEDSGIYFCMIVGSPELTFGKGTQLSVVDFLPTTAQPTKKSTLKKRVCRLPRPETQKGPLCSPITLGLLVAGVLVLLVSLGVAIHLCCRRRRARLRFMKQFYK", "experiment": "flow cytometry, 20 nM mAb on human pan T cells", "protocol": "Secondary antibodies were A647-conjugated goat anti human IgG Fc antibody at 2 μg/mL, and A488-conjugated mouse anti-human CD4 at 1 μg/mL in staining buffer. Live cells were also gated based on OKT8 control mAb binding. Percent CD8 positive population was calculated by percentage of CD8-positive cell count/live cell count.", "data": [{"binder": "CD8B182 (antibody, human IgG1, kappa, V domains shown, full-length human IgG1, kappa) VH: EVQLQQSGAALAKPGTSVKMSCKASGYTFTSYWMNWVRQRPGQGLEWIGAVNPTNYYTEYIQKFKDKAILTADKSSSTAYMHLSGLTSEDSAVYYCARSGLYNTNHLAWFAYWGQGTTVTVSS VL: DIKMTQSPASLSASVGETVTITCRASENIHNYLAWYQQIQGKSPQLLVYNAKTLANGVPSRFSGSASGTQFSLTINSLQPEDFGSYYCQHFWTTPLTFGAGTKLELKR", "values": [{"measurement": "Cell Binding to Human PanT Signal/Background (of CD4 negative population)", "value": 1490}]}, {"binder": "CD8B251 (antibody, human IgG1, kappa, V domains shown, full-length human IgG1, kappa) VH: QVQLKGSGPGLVQPSQSLSITCTVSGFSLTTYAVHWVRQSPGKGLEWLGVIWSGGSTDYNAAFISRLSISKDNSKSQVFFKMNSLQADDTAIYYCARHSYYHYNAMDNWGQGTSVTVSS VL: DIKMTQSQKFMSTTVGDRVSITCKASQNVGTAVAWYQQKPGQSPKLLIYSASNRYTGVPDRFTGSGSGTDFTLTISNMQSEDLADYFCQQYSSYPFTFGSGTKLEIKR", "values": [{"measurement": "Cell Binding to Human PanT Signal/Background (of CD4 negative population)", "value": 37}]}, {"binder": "CD8B269 (antibody, human IgG1, kappa, V domains shown, full-length human IgG1, kappa) VH: DVQLQESGPGLVKPSQSLSLTCSVTGYSITSGYYWNWIRQFPGNKLEWMGYISYDGSNNYNPSLKNRISITRDTSKNQFFLKLNSVTTEDTATYYCVRNHGDAMDHWGQGTTLTVSS VL: DIVMTQSQKFMSTSVGDRVRVTCKASQNVGTDVAWYQQKPGQSPKALIYSASYRYSGVPDRFTGSGSGTDFTLTISDVQSEDLAEYFCQQYKSYPLTFGAGTKLELKR", "values": [{"measurement": "Cell Binding to Human PanT Signal/Background (of CD4 negative population)", "value": 26}]}, {"binder": "CD8B310 (antibody, human IgG1, kappa, V domains shown, full-length human IgG1, kappa) VH: QVQLKESGPGLVAPSQSLSITCTVSGFSLTNYAVHWVRQSPGKGLEWLGVIWTDGSTDYNAGFISRLSISKDNSKSQVFFKMNSLQADDTAIYYCARNNGYFPAFFAYWGQGTTVTVSS VL: DVLMTQTPLSLPVSLGDQASISCRSSQTIVHSNGNTYLEWYLQKPGQSPKLLMYKVSNRFSGVPDRFGGSGSGTDFTLKISRVEAEDLGVYYCFQGSHAPFTFGSGTKLEIKR", "values": [{"measurement": "Cell Binding to Human PanT Signal/Background (of CD4 negative population)", "value": 29}]}, {"binder": "CD8B319 (antibody, human IgG1, kappa, V domains shown, full-length human IgG1, kappa) VH: QVQLKESGPELKKPGETVKISCKASGYSFTAYYMHWVKQSPEKSLEWIGEINPSAGGTTYNQKFKAKATLTVDKSSSTAFIQLKSLTSEDSAVYYCARWTNPFDYWGQGTTLTVSS VL: DIVMTQSQKFMSTTVGDRVSITCKASQNVGTAVAWYQQKPGQSPKLLIYSASYRYTGVPDRFTGSGSGTHFTLTISNIQSEDLADYFCQQYNNYLTFGSGTKLEIKR", "values": [{"measurement": "Cell Binding to Human PanT Signal/Background (of CD4 negative population)", "value": 16}]}, {"binder": "CD8B324 (antibody, human IgG1, kappa, V domains shown, full-length human IgG1, kappa) VH: QVQLQQPGADLVKPGASVKLSCKASGYTSTSHWIHWVKQRPGQGLEWIGNIYPGSSSTNYNEKFKRMATLTVDTSSSTVYMVLSSLTSDDSAVYYCARHSPGHRDYAMDYWGLGTSVTVSS VL: DIVMTQSQKFMPTTVGDRVSITCKASQNVGTAVAWYQQKPGQSPKLLIASASNRYTGVPDRFTGSGSGTDFTLTISTMQSEDLADYFCQQYSTYPLTFGAGTKLEMKR", "values": [{"measurement": "Cell Binding to Human PanT Signal/Background (of CD4 negative population)", "value": 1610}]}, {"binder": "CD8B337 (antibody, human IgG1, kappa, V domains shown, full-length human IgG1, kappa) VH: QVTLKESGPGKVQPSQTLSLTCSFSGFSLSTSGMGVSWIRKPSGKGLEWLAHIFWDDDRRYKSSLKSRLTISKDTSSNQVFLMITSVDTADSATYYCARRVGYGDYAYFDVWGAGTTVTVSS VL: DIQMTQYPASLSVSVGETVTITCRASENIYSDLAWYQQKQGKSPQLLVYAATNLADGVPSRFSGSGSGTQYSLKINSLQSEDFGNYYCQHFWGTPWTFGGGTKLEIKR", "values": [{"measurement": "Cell Binding to Human PanT Signal/Background (of CD4 negative population)", "value": 1980}]}, {"binder": "CD8B366 (antibody, human IgG1, kappa, V domains shown, full-length human IgG1, kappa) VH: EVQLQQSGPELVRPGASVKLSCTASGFNIKDDYIHWVKQRPEQGLEWIGRIDPANGNPRYAPKFQDKATLTADTSSNTAYLQLSSLTSEDTAVYYCARDDEGYYYFDVWGAGTSVTVSS VL: DIKMTQSPSYLAASPGETITINCRASKSISKYLAWYQEKPGKTNKVLIYSGSTLQSGIPSRFSGSGSGTDFTLTISSLEPEDFAIYYCQQHNEYPLTFGDGTRLEIKR", "values": [{"measurement": "Cell Binding to Human PanT Signal/Background (of CD4 negative population)", "value": 318}]}, {"binder": "CD8B186 (antibody, human IgG1, kappa, V domains shown, full-length human IgG1, kappa) VH: QVQLQQSGAELAKPGASVKMSCKASGYIFTSYWMHWVKQRPGQGLEWIGNINPSSGYAVYNQKFKDKATLTADQSSSTAYIQLNSLTSEDSAVYYCARRVFYGDSWFAYWGQGTSVTVSS VL: DVQMIQSPASLSASVGETVTITCRASGNIHNYLAWYQQKQGKSPQLLVYNAKTLADGVPSRFSGSGSGTQYSLKINSLQPEDFGSYYCQHFWSTTWTFGGGTKLEIKR", "values": [{"measurement": "Cell Binding to Human PanT Signal/Background (of CD4 negative population)", "value": 36}]}, {"binder": "CD8B192 (antibody, human IgG1, kappa, V domains shown, full-length human IgG1, kappa) VH: QVQLQQSGPVLVKPGASVKMSCKASGYTFTDYYMNWVMQSHGKSLEWIGVINPYNGGTTYNQRFTGKATLTVDKSSSTAYMELNSLTSEDSAVYYCARNYGAMDSWGQGTSVTVSS VL: DIQMTQSPASLSASVGETVTITCRASGNIHNYLAWYQQKQGKSPQLLVSNAKTLADGVPSRFGGSGSGTQYSLKINSLQPEDFGSYYCQHFWITPPTFGAGTRLEIKR", "values": [{"measurement": "Cell Binding to Human PanT Signal/Background (of CD4 negative population)", "value": 22}]}, {"binder": "CD8B245 (antibody, human IgG1, kappa, V domains shown, full-length human IgG1, kappa) VH: EFQLQQSGGGLVQPGGSLSLSCAAPGFTFTDYYMSWVRQSPGKALEWLALSRNKGNGYTTEYSASVKGRFTISRDNSQSILYLQMNVLRAEDSATYYCARTVTGTLFYYALDYWGQGTTVTVSS VL: DIQMTQSPASLSASVGETVTITCRASENIYSYLAWYQQKQGKSPQFLVYNAKTLAAGVPSRFSGSGSGTQFSLKINRLQPEDFGTYYCQHHYGTPLTFGDGTRLEIKR", "values": [{"measurement": "Cell Binding to Human PanT Signal/Background (of CD4 negative population)", "value": 44}]}, {"binder": "CD8B248 (antibody, human IgG1, kappa, V domains shown, full-length human IgG1, kappa) VH: EVQLQQSGAELARPGASVKMSCKASGYTFTTYTMHWVKQRPGQGLEWIGYINPSSGYTKYNQKFTDKATLTADKSSSTAYMQLSSLTSEDSAVYYCARLWAYWGQGTLVTVSA VL: DVVMTQTPLSLPVSLGDQASISCRSSQSLVHSSGNTYLHWYLQKPGQSPKLLIYKGSNRFSGVSDRFSGSGSGTDFTLKISRVEAEDLGVYFCSQSTHVPFTFGSGTKLEMKR", "values": [{"measurement": "Cell Binding to Human PanT Signal/Background (of CD4 negative population)", "value": 20}]}, {"binder": "CD8B250 (antibody, human IgG1, kappa, V domains shown, full-length human IgG1, kappa) VH: QVQLKESGPGLVAPSQSLSITCTVSGFSLSNYVVHWVRQSPGKGLEWLGVIWTDGSTDYNAAFISRLSISKDNSKSQVFFKMNSLQADDTAIYYCARNNGYFPAFFAYWGQGTLVTVSA VL: DIVMTQSQKFMSTSVGDRVSVTCKASQNVDTDITWYQQKPGQSPKALIYSASYRYSGVPDRFTGSGSGTDFTLTITNVQSEDLAEYFCQQYNSYPLTFGSGTKLEMKR", "values": [{"measurement": "Cell Binding to Human PanT Signal/Background (of CD4 negative population)", "value": 61}]}, {"binder": "CD8B254 (antibody, human IgG1, kappa, V domains shown, full-length human IgG1, kappa) VH: EVQLQQSGAELVKPGASVKMSCKTSGYTFSSYWITWVKQRPGQGLEWVGDIYPGSGSTNYNEKFKSKAALTVDTSSSTAFMQLNSLTSEDSAVYYCARESITTRITPFDHWGQGTTLTVSS VL: DVVMTQTPLSLPVSLGDQASISCRSSQSLVHSSGNTYLHWYLQKPGQSPKLLIYKGSNRFSGVSDRFSGSGSGTDFTLKISRVEAEDLGVYFCSQSTHVPFTFGSGTKLEIKR", "values": [{"measurement": "Cell Binding to Human PanT Signal/Background (of CD4 negative population)", "value": 23}]}, {"binder": "CD8B311 (antibody, human IgG1, kappa, V domains shown, full-length human IgG1, kappa) VH: QVQLKESGPELVKPGASVKLSCKASGYTFTSYWMHWVKQRPGQGLEWIGMIHPNSGSTNYNEKFKSKATLTVDKSSSTAYMQLSSLTSEDSAVYYCARCGYDGAWFAYWGQGTSVTVSS VL: DIQMTQTTSSLSASLGDRVTISCSASQGISNCLNWYQQKPDGTVKLLIHYTSSLHSGVPSRFSGGGSGTHYSLTISNLEPEDIATYYCQQYSKVPYTFGSGTKLEIKR", "values": [{"measurement": "Cell Binding to Human PanT Signal/Background (of CD4 negative population)", "value": 1}]}, {"binder": "CD8B340 (antibody, human IgG1, kappa, V domains shown, full-length human IgG1, kappa) VH: QVQLQQPGAELVKPGASVRLSCKASGYTFTNYWMQWVQQRPGQGLEWIGEIDPSDTFTNYNQNFKDKATLTVDTSSSTAYLQLSSLTSEDSAVYYCARGDWDRDWYFDVWGTGTLVTVSA VL: not shown", "values": [{"measurement": "Cell Binding to Human PanT Signal/Background (of CD4 negative population)", "value": 8}]}, {"binder": "CD8B362 (antibody, human IgG1, kappa, V domains shown, full-length human IgG1, kappa) VH: EVKLVESGAELVKPGASVKLSCTASGFNIKDTYMHWVKQRPEQGLEWIGRIDPANGHTKFDPKFQGKATITADTSSNTAYLQLSSLTSEDTAVYYCAIRFAYWGQGTLVTVSA VL: DIQMTQSPSSLSASLGDRVSLTCRASHEISGYLSWLQQKPDGTFKRLIYAASTLDSGVPKRFSGSRSGSDYSLSISSLESEDFADYYCLQYSSYPYTFGSGTKLEMKR", "values": [{"measurement": "Cell Binding to Human PanT Signal/Background (of CD4 negative population)", "value": 4}]}]}
